# Results from patent US20220372155A1 (LYVGEN BIOPHARMA, published 2022).
# B1: Ly463 (bispecific antibody, human IgG1, kappa)
# heavy: QVQLKESGPGLVAPSQSLSITCTVSGFSLTDYGVRWIRQPPGKGLEWLGVIWGGGSTYYNSALKSRLSISKDNSKSQVFLKMNSLQTDDTAMYYCAKEKRRGYYYAMDYWGQGTSVTVSSASTKGPSVFPLAPSSKSTSGGTAALGCLVKDYFPEPVTVSWNSGALTSGVHTFPAVLQSSGLYSLSSVVTVPSSSLGTQTYICNVNHKPSNTKVDKKVEPKSCDKTHTCPPCPAPELLGPSVFLFPPKPKDTLMISRTPEVTCVVVDVSHEDPEVKFNWYVDGVEVHNAKTKPREEQYNSTYRVVSVLTVLHQDWLNGKEYKCKVSNKALPAPIEKTISKAKGQPREPQVYTLPPSREEMTKNQVSLTCLVKGFYPSDIAVEWESNGQPENNYKTTPPVLDSDGSFFLYSKLTVDKSRWQQGNVFSCSVMHEALHNHYTQKSLSLSPGGGGGSGGGGSGGGGSGGGGSQVQLVESGGGLVQPGGSLKLSCATSGFNFNDYFMNWVRQASGKGLEWVGQIRNKNYNYATYYTESLEGRVTISRDDSKNTAYLQMNSLKTEDTAVYYCTSYYYDGFADYFDYWGQGTTVTVSSGGGGSGGGGSGGGGSGGGGSDIQMTQSPSSLSASVGDRVTITCKASQNIYIYLNWYQQKPGKAPKLLIYNTNNLQTGVPSRFSGSGSGTDFTLTISSLQPEDFATYYCLQHSSRRTFGGGTKVEIK
# light: ENVLTQSPAIMSASPGEKVTMTCRASSSVSSSYLHWYQQKSGASPKLWIYSTSNLASGVPARFSGSGSGTSYSLTISSVEAEDAATYYCQQYSGYPLTFGGGTKLEIKRTVAAPSVFIFPPSDEQLKSGTASVVCLLNNFYPREAKVQWKVDNALQSGNSQESVTEQDSKDSTYSLSSTLTLSKADYEKHKVYACEVTHQGLSSPVTKSFNRGEC
# notes: Ly368 HC-TM740 scFv VH-VL + Ly368 LC
# B2: Ly464 (bispecific antibody, human IgG1, kappa)
# heavy: QVQLKESGPGLVAPSQSLSITCTVSGFSLTDYGVRWIRQPPGKGLEWLGVIWGGGSTYYNSALKSRLSISKDNSKSQVFLKMNSLQTDDTAMYYCAKEKRRGYYYAMDYWGQGTSVTVSSASTKGPSVFPLAPSSKSTSGGTAALGCLVKDYFPEPVTVSWNSGALTSGVHTFPAVLQSSGLYSLSSVVTVPSSSLGTQTYICNVNHKPSNTKVDKKVEPKSCDKTHTCPPCPAPELLGPSVFLFPPKPKDTLMISRTPEVTCVVVDVSHEDPEVKFNWYVDGVEVHNAKTKPREEQYNSTYRVVSVLTVLHQDWLNGKEYKCKVSNKALPAPIEKTISKAKGQPREPQVYTLPPSREEMTKNQVSLTCLVKGFYPSDIAVEWESNGQPENNYKTTPPVLDSDGSFFLYSKLTVDKSRWQQGNVFSCSVMHEALHNHYTQKSLSLSPG
# light: ENVLTQSPAIMSASPGEKVTMTCRASSSVSSSYLHWYQQKSGASPKLWIYSTSNLASGVPARFSGSGSGTSYSLTISSVEAEDAATYYCQQYSGYPLTFGGGTKLEIKRTVAAPSVFIFPPSDEQLKSGTASVVCLLNNFYPREAKVQWKVDNALQSGNSQESVTEQDSKDSTYSLSSTLTLSKADYEKHKVYACEVTHQGLSSPVTKSFNRGECGGGGSGGGGSGGGGSGGGGSDIQMTQSPSSLSASVGDRVTITCKASQNIYIYLNWYQQKPGKAPKLLIYNTNNLQTGVPSRFSGSGSGTDFTLTISSLQPEDFATYYCLQHSSRRTFGGGTKVEIKGGGGSGGGGSGGGGSGGGGSQVQLVESGGGLVQPGGSLKLSCATSGFNFNDYFMNWVRQASGKGLEWVGQIRNKNYNYATYYTESLEGRVTISRDDSKNTAYLQMNSLKTEDTAVYYCTSYYYDGFADYFDYWGQGTTVTVSS
# notes: Ly368 HC + Ly368 LC-TM740 scFv VL-VH
# B3: Ly465 (bispecific antibody, human IgG1, kappa)
# heavy: B2 heavy
# light: ENVLTQSPAIMSASPGEKVTMTCRASSSVSSSYLHWYQQKSGASPKLWIYSTSNLASGVPARFSGSGSGTSYSLTISSVEAEDAATYYCQQYSGYPLTFGGGTKLEIKRTVAAPSVFIFPPSDEQLKSGTASVVCLLNNFYPREAKVQWKVDNALQSGNSQESVTEQDSKDSTYSLSSTLTLSKADYEKHKVYACEVTHQGLSSPVTKSFNRGECGGGGSGGGGSGGGGSGGGGSQVQLVESGGGLVQPGGSLKLSCATSGFNFNDYFMNWVRQASGKGLEWVGQIRNKNYNYATYYTESLEGRVTISRDDSKNTAYLQMNSLKTEDTAVYYCTSYYYDGFADYFDYWGQGTTVTVSSGGGGSGGGGSGGGGSGGGGSDIQMTQSPSSLSASVGDRVTITCKASQNIYIYLNWYQQKPGKAPKLLIYNTNNLQTGVPSRFSGSGSGTDFTLTISSLQPEDFATYYCLQHSSRRTFGGGTKVEIK
# notes: Ly368 HC + Ly368 LC-TM740 scFv VH-VL
# Biological target: T1, human CD40 expressed on CHO cells (human, UniProt P25942 21-277)
# T1 construct: whole, on cells; also used for the reporter cells over-expressing human CD40; also called cellular CD40; CHO-CD40 cells
# T1 sequence (P25942 21-277): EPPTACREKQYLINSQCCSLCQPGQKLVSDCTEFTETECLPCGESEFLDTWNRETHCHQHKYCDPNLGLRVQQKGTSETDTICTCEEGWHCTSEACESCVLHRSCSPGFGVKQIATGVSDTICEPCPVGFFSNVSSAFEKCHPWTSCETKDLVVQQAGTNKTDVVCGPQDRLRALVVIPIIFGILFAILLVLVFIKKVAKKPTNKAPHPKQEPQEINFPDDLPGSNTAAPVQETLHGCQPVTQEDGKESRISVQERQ
# Assay: FACS, CHO cells
row,Binder,binding result
1,B1,binds
2,B2,binds
3,B3,binds
